US9428586B2, “Heparanase splice variant” (COMPUGEN LTD, priority 2010, dated 2016)

Key:
[1] = system: CAG myeloma, FaDu pharynx carcinoma and 293 cells; experiment: Colony formation in soft agar; type: cell-based, human; settings: over expression in CAG myeloma, FaDu and 293 cells
Method: (§1) FIG. 4. T5 augments cell proliferation. A. BrdU incorporation. Morphology of control (Con), heparanase (Hepa)- and T5-infected CAG myeloma cell cultures is shown in the upper panels. […] Sub-confluent cultures of control (Vo), heparanase (Hepa)- and T5-infected CAG cells were grown in serum-free medium for 20 h followed by incubation with BrdU (1:1000) for 2 h. Cells were then fixed and immunostained with anti BrdU monoclonal antibody. Positively stained, red-brown nuclei were counted vs. blue, hematoxilin counter-stained nuclei. At least 1000 cells were counted for each cell type and the percentage of positively stained cells is noted in each panel. Fold increase in BrdU incorporation is shown graphically on the right panel. Gene silencing. 293 cells were transfected with anti-GFP (si-GFP), anti-heparanase (si-Hepa) or anti-T5 siRNA oligonucleotides and BrdU incorporation was evaluated as above except that cells were kept in serum-containing medium (lower panels). Note 2-fold decrease in BrdU incorporation following heparanase or T5 gene silencing (lower right panel). B. Colony formation in soft agar. […]
Three ml of DMEM containing 0.5% low melt agarose (Bio-Rad, Hercules, Calif.) and 10% fetal calf serum was poured into 60 mm petri dishes. […] Colonies were visualized and counted under a microscope after 2-5 weeks, as described.

[2] = system: CAG myeloma cells; experiment: Cell proliferation by BrdU incorporation, CAG myeloma cells; type: cell-based, human; settings: infected CAG cells, serum-free 20 h, BrdU 2 h; control Vo 24±3%
Method: as §1
Cell proliferation was analyzed by BrdU incorporation using cell proliferation labeling reagent (1:1000, GE Healthcare), as described in Zetser, A., et al (2003 Cancer Res 63, 7733-7741). At least 1000 cells were counted for each cell type.

[3] = system: Src; experiment: Src phosphorylation (immunoblot, densitometry) in CAG myeloma cells; type: cell-based, human; settings: infected CAG myeloma cells, serum-free
Method: FIG. 3. T5 augments Src phosphorylation. A. Over expression. CAG myeloma (left) and 293 (right) cells infected with heparanase (Hepa), T5, or control empty vector (Vo) were grown in the absence (−) or presence (+) of heparin (50 μg/ml) under serum-free conditions. Total cell lysates were subjected to immunoblotting applying anti-heparanase 1453 (upper and second panels), anti-phospho-Src (p-Src, third panels), anti-Src (fourth panels) anti-phospho-Erk (p-Erk, fifth panels), and anti-Erk2 (sixth panels) antibodies. Src phosphorylation index was calculated by densitometry analysis of phosphorylated Src levels divided by the total Src values. Data is presented as average fold increase ±SE of Src phosphorylation compared with control, Vo cells, set arbitrary to a value of 1 (lower panels) of five independent experiments. B. Gene silencing. Parental 293 cells were transfected with anti-heparanase, anti-T5, or control siRNAs. Total RNA was extracted and RT-PCR analysis was performed applying T5 (upper panel), heparanase (Hepa, second panel) and GAPDH (third panel) specific primers. Corresponding cell lysates were subjected to immunoblotting applying phospho-Src (p-Src, fourth panel), Src (fifth panel), phospho-Erk (p-Erk, sixth panel) and Erk2 (seventh panel) antibodies. Src phosphorylation index was calculated as above and is shown graphically in the lower panel. Note decreased Src phosphorylation levels upon T5 down regulation.
Preparation of cell lysates, protein blotting, and measurement of heparanase enzymatic activity were carried out as described previously (Zetser, A., et al., 2006, Cancer Res 66, 1455-1463; Fux, L., et al., 2009, Cancer Res 69, 1758-1767).

[4] = molecular target: Concanavalin A (Canavalia ensiformis, UniProt P02866); settings: lysates of over expressing 293 cells
Method: FIG. 7. […] A. Cell lysates. […] Control (Vo), heparanase and T5 transfected 293 cells were left untreated (−) or incubated with heparin (+, 50 μg/ml) for 20 h under serum-free conditions. […] B,C. Peptide analysis. Peptides corresponding to the heparin binding domain of heparanase (KKDC) or T5 (CKKK) which includes its unique three amino acids (SKK), and control scrambled (Scr) peptide were subjected to gel electrophoresis prior to or following incubation with heparin beads (+Heparin). C. Enzymatic activity.

B1: T5: novel splice variant of heparanase; truncated, enzymatically inactive 169 amino acid protein (protein, listed as Homo sapiens)
chain: MLLRSKPALPPPLMLLLLGPLGPLSPGALPRPAQAQDVVDLDFFTQEPLHLVSPSFLSVTIDANLATDPRFLILLGSPKLRTLARGLSPAYLRFGGTKTDFLIFDPKKESTFEERSYWQSQVNQDICKYGSIPPDVEEKLRLEWPYQEQLLLREHYQKKFKNSTYSSKK
- colony number, size and cell density in soft agar [1]: markedly increased
- BrdU incorporation (positively stained cells) [2]: 52±5%
- Src phosphorylation increase vs control Vo cells [3]: comparable induction of Src phosphorylation
- interaction with the lectin Concanavalin A [4]: retained
